These results are taken from patent US20150217006A1 (IMMUNOMEDICS, published 2015).

For assay [1], the target named is T1, gastrin-releasing peptide receptor (GRPR) (human, UniProt P30550 1-384).
T1 construct: whole, on cells; also called GRP receptor; GRP-receptor
Kind of assay: competition with 125I-Bombesin on PC-3 cells, inhibitor 56 to 0.44 nM. The procedure: (§1) We used IMP333 as a non-specific control. […] A range of 56 to 0.44 nM was used as our inhibitory concentrations.

For assay [2], the target named is T1, gastrin-releasing peptide receptor …. Briefly: competition with 125I-BBN on PC-3 cells, repeat experiment, inhibitor 250 to 2 nM. Here is the method:
as §1
This experiment was repeated using a commercially available BBN peptide. We increased the amount of inhibitory peptide from 250 to 2 nM to block the ¹²⁵I-BBN from binding to PC-3 cells.

T1 sequence (P30550 whole entry): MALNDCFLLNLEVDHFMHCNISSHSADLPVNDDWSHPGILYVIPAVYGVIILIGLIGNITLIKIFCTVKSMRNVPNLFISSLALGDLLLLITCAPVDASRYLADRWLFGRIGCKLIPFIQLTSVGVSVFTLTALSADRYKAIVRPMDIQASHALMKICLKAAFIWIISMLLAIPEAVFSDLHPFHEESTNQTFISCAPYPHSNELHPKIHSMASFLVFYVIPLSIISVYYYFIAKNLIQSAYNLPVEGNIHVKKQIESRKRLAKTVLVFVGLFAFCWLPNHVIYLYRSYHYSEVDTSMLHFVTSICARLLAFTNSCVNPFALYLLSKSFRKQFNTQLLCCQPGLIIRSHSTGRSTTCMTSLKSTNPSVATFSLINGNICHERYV

B1: IMP468 (NOTA-NH-(CH2)7CO-Gln-Trp-Val-Trp-Ala-Val-Gly-His-Leu-Met-NH2) (peptide)
peptide: QWVWAVGHLM
HELM: PEPTIDE1{[O=C(O)CN1CCN(CC(=O)O)CCN(CC(=O)[*:2])CC1].[O=C(CCCCCCCN[*:1])[*:2]].Q.W.V.W.A.V.G.H.L.M.[am]}$$$$V2.0
SMILES: CSCC[C@H](NC(=O)[C@H](CC(C)C)NC(=O)[C@H](Cc1c[nH]cn1)NC(=O)CNC(=O)[C@@H](NC(=O)[C@H](C)NC(=O)[C@H](Cc1c[nH]c2ccccc12)NC(=O)[C@@H](NC(=O)[C@H](Cc1c[nH]c2ccccc12)NC(=O)[C@H](CCC(N)=O)NC(=O)CCCCCCCNC(=O)CN1CCN(CC(=O)O)CCN(CC(=O)O)CC1)C(C)C)C(C)C)C(N)=O
notes: also called NOTA-conjugated bombesin derivative
On to B1, for which the IC50 (usually the concentration that gives 50% inhibition) in assay [1] came to 21.5 nM; in assay [2] it was 35.9 nM.
